Measurements reported in patent US20200150131A1.

Key:
[1] = biological target: CML conjugated to KLH (CML-KLH); test: direct binding ELISA, CML-KLH coat 1 ug/mL, antibody at 16.67 ug/mL
[2] = biological target: CML conjugated to KLH (CML-KLH); test: direct binding ELISA, CML-KLH coat 1 ug/mL, antibody at 0.07 ug/mL
[3] = biological target: CML conjugated to KLH (CML-KLH); test: direct binding ELISA, CML-KLH coat 1 ug/mL, antibody at 0.62 ug/mL
[4] = biological target: CML conjugated to KLH (CML-KLH); test: direct binding ELISA, CML-KLH coat 1 ug/mL, antibody at 5.56 ug/mL
[5] = biological target: CML conjugated to KLH (CML-KLH); test: direct binding ELISA, CML-KLH coat 1 ug/mL, antibody at 1.85 ug/mL
[6] = biological target: CML conjugated to KLH (CML-KLH); test: direct binding ELISA, CML-KLH coat 1 ug/mL, antibody at 50 ug/mL
[7] = biological target: CML conjugated to KLH (CML-KLH); test: direct binding ELISA, CML-KLH coat 1 ug/mL, antibody at 0.21 ug/mL

**Q.** For “anti-carboxymethyl lysine (CML) antibody (R&D Systems, MAB3247)”, which OD450 [1] is on record?
**A.** 0.312 OD450

**Q.** What about the OD450 [2] of the same substance?
**A.** 0.086 OD450

**Q.** What about the OD450 [3] of the same substance?
**A.** 0.083 OD450

**Q.** What about the OD450 [4] of the same substance?
**A.** 0.165 OD450

**Q.** What about the OD450 [5] of the same substance?
**A.** 0.092 OD450

**Q.** And the OD450 [6]?
**A.** 0.462 OD450

**Q.** What about the OD450 [7] of the same substance?
**A.** 0.075 OD450
